Results: patent US8758763B2, “Archaeal polar lipid aggregates for administration to animals” (National Research Council of Canada, priority 2006, dated 2014)

B1: OVA/saline: OVA in saline, no adjuvant control (protein, UniProt P01012 2-386, looked up)
Ovalbumin: GSIGAASMEFCFDVFKELKVHHANENIFYCPIAIMSALAMVYLGAKDSTRTQINKVVRFDKLPGFGDSIEAQCGTSVNVHSSLRDILNQITKPNDVYSFSLASRLYAEERYPILPEYLQCVKELYRGGLEPINFQTAADQARELINSWVESQTNGIIRNVLQPSSVDSQTAMVLVNAIVFKGLWEKAFKDEDTQAMPFRVTEQESKPVQMMYQIGLFRVASMASEKMKILELPFASGTMSMLVLLPDEVSGLEQLESIINFEKLTEWTSSNVMEERKIKVYLPRMKMEEKYNLTSVLMAMGITDVFSSSANLSGISSAESLKISQAVHAAHAEINEAGREVVGSAEAGVDAASVSEEFRADHPFLFCIKHIATNAVLFFGRCVSP
B2: OVA/CaCl2: OVA in saline supplemented with 15 mM CaCl2, no adjuvant group (protein, UniProt P01012 2-386, looked up)
Ovalbumin: B1 Ovalbumin

Assays:
[1] = system: OVA; assay: Anti-OVA antibody responses (ELISA) in immunized C57BL/6 mice; conditions: i.n. at 0, 7, 21 d, 10 μg OVA/immunization; 28 d
[2] = system: EG.7 cells; assay: Cytotoxic T lymphocyte (CTL) assay, 51Cr release, spleen cells of immunized mice; format: in vivo, C57BL/6 mice; conditions: i.n. at 0, 7, 21 d, 10 μg OVA/immunization; spleen cells at 36-42 d; target EG.7 cells
Procedure: For conducting cytotoxic (cytotolytic) T Lymphocyte (CTL) assays, EL-4 and EG.7 (subclone of EL-4 that has been stably transfected with the gene encoding for OVA expression), cell lines were obtained from the American Type Culture Collection (ATCC, Manassas, Va., USA). Both cell lines were maintained in RPMI 1640 medium (Life Technologies, Grand Island, N.Y.) supplemented with 8% fetal bovine serum (FBS, Invitrogen Canada, Inc., Burlington, Ontario, Canada), except that 400 μg/ml G418 supplement (Invitrogen Canada Inc.) was also added for maintaining the EG.7 cell line. All cells were cultured at 37° C. in a humidified atmosphere of air containing 8% CO2. […]
After 5 days incubation (37° C., 8% CO2 in air), the cells were recovered, washed, and counted for use as effector cells for the CTL assay. […] The culture supernatants were collected and the released radioactivity in 70 μl aliquots for gamma counter or in 50 μl aliquots for beta counter, was measured after adding to 150 μl Optiphase Supermix^R scintillant (PerkinElmer LAS Canada, Inc., Woodbridge, Ontario, Canada). Percent specific cell lysis was calculated as 100×[(cpm experimental−cpm spontaneous)/cpm maximum−cpm spontaneous)]. […]

[3] = system: OVA; format: in vivo, Balb/c mice

| Molecule | anti-OVA IgA responses in fecal, vaginal wash and serum samples [1] | serum IgG, IgG1 and IgG2a responses [1] | CTL response, specific cell lysis [2] | anti-OVA IgA responses ([3]; mouse, in vivo) | anti-OVA IgA antibody responses (fecal, vaginal, nasal, bile, serum) ([3]; 28 d) |
| --- | --- | --- | --- | --- | --- |
| B1 | Little to no measurable | measurable, but smaller | no CTL response | negligible to not measurable |  |
| B2 |  |  |  |  | little or no measurable |
